# In article PMC3300016:
# B1: T30 (ssDNA)
# DNA: TTTTTTTTTTTTTTTTTTTTTTTTTTTTTT
# B2: T18 (ssDNA)
# DNA: TTTTTTTTTTTTTTTTTT
# What was measured:
# [1] = molecular target: BPV-1 E1 helicase domain (E1HD), residues 299-605 (bovine papillomavirus (BPV-1)) (UniProt P03116); test: SEC
# [2] = molecular target: T1, E1HD (E1 helicase domain) (bovine papillomavirus BPV-1, UniProt P03116 299-605); test: EMSA
# [3] = molecular target: T1, E1HD (E1 helicase domain); test: gel filtration
# T1 sequence (P03116 299-605): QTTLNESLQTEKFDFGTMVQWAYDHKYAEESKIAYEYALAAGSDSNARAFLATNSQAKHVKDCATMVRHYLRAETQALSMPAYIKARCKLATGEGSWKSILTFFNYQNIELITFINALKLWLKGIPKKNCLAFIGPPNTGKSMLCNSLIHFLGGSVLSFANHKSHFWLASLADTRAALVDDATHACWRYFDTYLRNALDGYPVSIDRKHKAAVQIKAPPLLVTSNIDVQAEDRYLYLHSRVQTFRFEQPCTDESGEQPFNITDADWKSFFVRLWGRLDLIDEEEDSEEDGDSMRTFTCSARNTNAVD
molecule,measurement,setting,value
"BPV-1 E1 helicase domain (E1HD), residues 299-605 (from UniProt P03116 299-605) (domain or fragment)",stoichiometry N,[1],6
B1,binding result,[2],binds
B2,binding result,[3],binds
